From patent publication US20170096478A1, “THERAPEUTIC AGENT FOR INFLAMMATORY DISEASE” (Josai University Corporation, priority 2012, published 2017)

What was measured:
[1] = system: spleen lymphocytes from a naive DA rat (responsive cells) and from a LEW rat (stimulated cells); test: MLR tests (mixed lymphocyte reaction, BrdU incorporation); type: cell-based
Procedure: Spleen lymphocytes from a naive DA rat (responsive cells) and spleen lymphocytes from a LEW rat treated with mitomycin-C (Kyowa Hakko Kogyo Co., Ltd.) (stimulated cells) were used. The responsive cells were adjusted to 5×10^5 cells/mL with 10% FCS-RPMI culture medium, and the stimulated cells were adjusted to 8×10^6 cells/mL with 10% FCS-RPMI culture medium. After plating the responsive cell suspension and the stimulated cell suspension in an amount of 100 μL to a 96 well round-bottom plate (Nunc Brand Products) respectively, the monoclonal antibody 16G9mAb of Reference Example 1 (0.1, 2, 4, or 6 μg/mL/well) or the monoclonal antibody SSVmAb of Example 1 (4 μg/mL/well) was added at the start of mixed culture, and cultured for 3.5 days or longer under the conditions of 37° C., 5% CO2/95% air. In addition, an immunosuppressive agent tacrolimus (FK506: Fujisawa Pharmaceutical Co., Ltd., 1 nM/well) was added as a positive control. Further, 10 μL bromo deoxyuridine (BrdU) was added 15 hours before the end of culture. Then the proliferation potential of the cells treated with the immunosuppressive agent was measured using BrdU labeling & detection kit III (Roche Diagnostics K.K.) using the amount of BrdU incorporated into cellular DNA as an indicator.

[2] = system: lipopolysaccharide (LPS)-induced lethal sepsis; test: Test Example 7: survival in LPS-induced lethal sepsis; type: in vivo, BALB/c mice
Procedure: BALB/c mice (bodyweight of 20 g to 30 g when starting the experiments, n=6) were raised in a plastic cage under SPF and thermo-hydrostat (22±1° C., 55±5%) conditions under 12-hour light-dark cycle. Foods and water were supplied ad libitum. Lipopolysaccharide (LPS)-induced lethal sepsis which is generally employed as an experimental sepsis model was induced by intraperitoneally administering LPS at a dose of 40 mg/kg. SSV mAb dissolved in physiological saline was intraperitoneally administered totally 3 times, i.e., at 30 minutes before, 6 hours after and 12 hours after the intraperitoneal administration of LPS, in an amount of 100 μg/dose in terms of the amount of SSV mAb. The survival of the animals thereafter was tested. To the control group, IgG (SIGMA) dissolved in physiological saline was administered in place of SSV mAb in the same manner.

[3] = system: lipopolysaccharide (LPS)-induced lethal sepsis; test: Test Example 8-4: evaluation of congestion, edema, inflammation and bleeding; type: in vivo, BALB/c mice; details: vs control group
Procedure: (§1) BALB/c mice (bodyweight of 20 g to 30 g when starting the experiments, n=10) were raised in a plastic cage under SPF and thermo-hydrostat (22±1° C., 55±5%) conditions under 12-hour light-dark cycle. Foods and water were supplied ad libitum. Then, by intraperitoneally administering LPS to the mice at a dose of 40 mg/kg, lipopolysaccharide (LPS)-induced lethal sepsis as an inflammatory disease was induced in the same manner as Test Example 7. SSV mAb dissolved in physiological saline was intraperitoneally administered totally 3 times, i.e., at 30 minutes before, 6 hours after and 12 hours after the intraperitoneal administration of LPS, in an amount of 100 μg/dose in terms of the amount of SSV mAb. The survival of the animals thereafter was tested. To the control group, IgG (SIGMA) dissolved in physiological saline was administered in place of SSV mAb in the same manner.
After the end of Test Example 8, scores of congestion, edema, inflammation and bleeding were evaluated according to the method of Murakami et al. (Shock, 18 (2002), p. 236). In particular, magnified images of 24 visual fields under a microscope were subjected to observation. The degrees of deterioration of congestion, edema and inflammation in the SSV mAb-administered group and the control group were evaluated on a 5-point scale ranging from 0 to 4 (4 is the highest deterioration).

histone H4 = histone H4 (Homo sapiens, UniProt P62805); test: ELISA affinity for histone H4; type: binding; details: absorbance at 405 nm, 5 μg/mL antibody, compared with histone H1
Procedure: (§2) The Affinities between histone H1 or core histone and SSVmAb were determined by ELISA.
(§3) A 96 well microplate was coated with histone H1, H2A, H2B, H3 or H4. Each histone used was dissolved in 100 mM sodium carbonate buffer (pH 9.3). The plate was washed with PBS-tween 20 (0.05%), and blocked with 3% skim milk and 1% BSA for 1 hour. To each well, 5 μg/mL SSVmAb was added, and incubated for 1 hour. Bound SSVmAb was detected using peroxidase (HRP) conjugated anti mouse IgG1 Ab (SIGMA), and incubated for 1 hour. Bound SSVmAb was detected using the ABTS [2,2′-azino-bis(3-ethylbenzothiazoline-sulfonic acid)] substrate solution, and absorbance at 405 nm was measured using Multiskan Ascent (Thermo Fisher Scientific Inc., Waltham, Mass.).
After the end of the tests, binding assays of SSV mAb with histone H1, histone H3 and histone H4 were carried out by ELISA in the same manner as Test Example 2.

histone H2A = test: ELISA affinity for histone H2A; type: binding; details: absorbance at 405 nm; 5 μg/mL antibody; compared with histone H1
Procedure: as §2, §3

[4] = system: renal ischemia reperfusion injury; test: Test Example 10: acute renal failure due to renal ischemia reperfusion injury, check test 2; type: in vivo, male Wistar rats; details: autopsy after the end of the test; vs control group
Procedure: Right kidney was removed from male Wistar rat (n=4) under general anesthesia, and then left kidney of the rat was subjected to ischemia reperfusion with vascular clip to prepare a model. For SSV mAb-administered group, SSV mAb was then administered in an amount of 10 mg/kg 30 minutes before preparing the model and immediately after the reperfusion Test was carried out in the same manner as Test Example 10 except that male Wistar rats (n=4-6) were used and except that, for SSV mAb-administered group, SSV mAb was administered in an amount of 10 mg/kg 30 minutes before preparing the model and 6 hours after the reperfusion. For control, IgG (SIGMA) was administered in place of SSV mAb in the same manner. Then, the concentrations of urea nitrogen (BUN) and creatinine (Cr) in serum at 24 hours after preparing the model were measured and the nephropathy level was evaluated. Further, the rats were subjected to autopsy after the end of the test, and histological evaluation was performed.

[5] = system: lipopolysaccharide (LPS)-induced lethal sepsis; test: Test Example 8-3: staining test of lung tissue; type: in vivo, BALB/c mice; details: after the end of Test Example 8
Procedure: as §1
After the end of Test Example 8, lung tissue sections were each obtained from […] of control group and SSV mAb-administered group, and stained by using hematoxylin and eosin stain (from Wako Pure Chemical Industries, Ltd.) according to the method conducted by Hasegawa et al. (Surg Res. 2012 May 1; 174(1):136-41.). Next, micrographs of the obtained samples were taken.
As a reference, micrographs of lung tissue slices from healthy rats were taken in the same manner.

B1: SSV mAb: monoclonal antibody (IgG1) produced by Mouse-Mouse hybridoma SSV-C 93-3 (NITE BP-972), raised against peptide … (SEQ ID NO:1)-KLH conjugate (antibody, V domains shown)
VH: EIQLQQSGAELVKPGASVKISCKASGYSFTGYNMNWVKQSHGKSLEWIGNINPYYGSTSYNQKFKGKATLTVDKSSSTAYMQLNSLTSEDSAVYYCARSPYYSNYWRYFDYWGQGTTLTVSS
VL: QIVLSQSPAILSASPGEKVTMTCRASSSVSYMHWYQQKPGSSPKPWIYATSNLASGVPARFSGSGSGTSYSLTISRVEAEDAATYYCQQWSSNPWTFGGGTKLEIK
[1]; 4 μg/mL/well, mean±S.E.
  absorbance which indicates the amount of incorporated BrdU: 0.552±0.114
[1]; SSVmAb 4 μg/mL/well, FK506 1 nM/well
  absorbance (incorporated BrdU) compared with Reference Example 1 (16G9mAb) and tacrolimus (FK506): lower
[1]; same amount added, 4 μg/mL/well
  mean absorbance of Example 1 relative to that of Reference Example 1: about 41%
[2]; 70 hours after administration of LPS
  cumulative survival rate: 0.7
[2]; 70 hours after administration of LPS 40 mg/kg i.p., 100 μg/dose i.p. 3 times
  survival rate: 70%
[2]; 70 hours after administration of LPS, p<0.05
  survival rate relative to that of the control group: about 3.5 times
[3]; 5-point scale 0 to 4
  score of congestion: significantly lower
  score of edema: significantly lower
  score of inflammation: significantly lower
[3]
  score of bleeding: significantly lower
Histone H4
  affinity for histone H4 (ELISA): binding capacity
Histone H4; listed as SSVmAb
  affinity for histone H4 (ELISA): higher than the affinity for histone H1
Histone H2A
  affinity for histone H2A (ELISA): higher than the affinity for histone H1
[4]
  histological evaluation of kidney: better than that of the control group
[5]
  inflammation in lungs (hematoxylin and eosin stained lung tissue sections): not observed
